In WO2011147762A2:

Tests used:
[1] = target: ED-B fibronectin antigen protein (recombinant), bound to CNBr activated sepharose 4B (UniProt P02751); experiment: ED-B sepharose column, % of total radioactivity bound; Study A; sodium thiosulfate 5 mg/mL; day 7
[2] = target: ED-B fibronectin antigen protein (recombinant), bound to CNBr activated sepharose 4B (UniProt P02751); experiment: ED-B sepharose column, % of total radioactivity bound; Study B3; ascorbic acid 25 mg/mL; day 0
[3] = target: ED-B fibronectin antigen protein (recombinant), bound to CNBr activated sepharose 4B (UniProt P02751); experiment: ED-B sepharose column, % of total radioactivity bound; Study A; inositol 10 mg/mL; day 1

Chain of 131I L19-SIP (radioiodinated L19 SIP homodimer) (chain): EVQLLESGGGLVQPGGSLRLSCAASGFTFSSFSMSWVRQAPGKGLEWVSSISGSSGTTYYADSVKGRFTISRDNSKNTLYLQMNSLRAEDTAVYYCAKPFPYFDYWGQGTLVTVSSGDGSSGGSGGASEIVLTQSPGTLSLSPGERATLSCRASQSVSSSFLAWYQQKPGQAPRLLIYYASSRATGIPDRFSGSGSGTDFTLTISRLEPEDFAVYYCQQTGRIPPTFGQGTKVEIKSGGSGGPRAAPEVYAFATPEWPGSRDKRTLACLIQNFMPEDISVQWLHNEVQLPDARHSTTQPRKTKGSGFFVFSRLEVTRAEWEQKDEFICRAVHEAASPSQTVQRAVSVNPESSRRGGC
Chain of 131I L19-SIP (radioiodinated L19 SIP homodimer) (chain): as above
Chain of UniProt P02751 (P02751 1266-1356 limits assumed): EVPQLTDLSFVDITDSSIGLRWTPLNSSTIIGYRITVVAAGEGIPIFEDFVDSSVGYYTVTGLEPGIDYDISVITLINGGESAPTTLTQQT

Immunoreactivity (%) [1]: 70%
Immunoreactivity (IR) (%) [2]: 74.1%
Immunoreactivity (%) [3]: 89.5%
Substance: 131I L19-SIP (radioiodinated L19 SIP homodimer)
